Reference: paper PMC8755798 (Nature Communications, 2022)

Molecular target: the molecule itself
Experiment: cryo-EM structure

B1: mycobacterial proteasome ATPase (Mpa), Mycobacterium tuberculosis, wild type (enzyme)
chain: MGESERSEAFGIPRDSPLSSGDAAELEQLRREAAVLREQLENAVGSHAPTRSARDIHQLEARIDSLAARNSKLMETLKEARQQLLALREEVDRLGQPPSGYGVLLATHDDDTVDVFTSGRKMRLTCSPNIDAASLKKGQTVRLNEALTVVEAGTFEAVGEISTLREILADGHRALVVGHADEERVVWLADPLIAEDLPDGLPEALNDDTRPRKLRPGDSLLVDTKAGYAFERIPKAEVEDLVLEEVPDVSYADIGGLSRQIEQIRDAVELPFLHKELYREYSLRPPKGVLLYGPPGCGKTLIAKAVANSLAKKMAEVRGDDAHEAKSYFLNIKGPELLNKFVGETERHIRLIFQRAREKASEGTPVIVFFDEMDSIFRTRGTGVSSDVETTVVPQLLSEIDGVEGLENVIVIGASNREDMIDPAILRPGRLDVKIKIERPDAEAAQDIYSKYLTEFLPVHADDLAEFDGDRSACIKAMIEKVVDRMYAEIDDNRFLEVTYANGDKEVMYFKDFNSGAMIQNVVDRAKKNAIKSVLETGQPGLRIQHLLDSIVDEFAENEDLPNTTNPDDWARISGKKGERIVYIRTLVTGKSSSASRAIDTESNLGQYL
Q: For B1, which “stoichiometry N” value is on record?
A: 6
